In patent US11813280B2, “Reducing beta-catenin and IDO expression to potentiate immunotherapy” (Dicerna Pharmaceuticals, Inc., priority 2018, dated 2023):
Entries after “also recorded” stand apart in the source; their conditions may differ.

Tests used:
advanced melanoma = settings: combined with pembrolizumab; Phase II study; cited from earlier work
IDO2 = molecular target: T1, IDO2 (Homo sapiens, UniProt Q6ZQW0); settings: Pendergast et al., Cancer Research, 2017; cited from earlier work
T1 sequence (Q6ZQW0 1-407): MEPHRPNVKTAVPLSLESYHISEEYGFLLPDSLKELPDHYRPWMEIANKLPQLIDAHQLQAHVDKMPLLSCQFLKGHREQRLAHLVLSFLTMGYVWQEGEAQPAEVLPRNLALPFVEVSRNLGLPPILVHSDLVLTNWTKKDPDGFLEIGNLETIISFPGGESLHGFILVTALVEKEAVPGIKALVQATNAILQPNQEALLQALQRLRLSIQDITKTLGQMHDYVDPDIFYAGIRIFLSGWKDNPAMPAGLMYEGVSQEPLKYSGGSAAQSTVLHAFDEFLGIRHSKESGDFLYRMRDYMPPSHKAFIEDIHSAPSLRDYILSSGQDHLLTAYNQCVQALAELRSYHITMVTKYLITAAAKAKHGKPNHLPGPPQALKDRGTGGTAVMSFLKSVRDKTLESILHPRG

IDO1 = IDO1 (Homo sapiens, UniProt P14902); settings: cited from earlier work
Chain of IDO1 (P14902 whole entry, species assumed): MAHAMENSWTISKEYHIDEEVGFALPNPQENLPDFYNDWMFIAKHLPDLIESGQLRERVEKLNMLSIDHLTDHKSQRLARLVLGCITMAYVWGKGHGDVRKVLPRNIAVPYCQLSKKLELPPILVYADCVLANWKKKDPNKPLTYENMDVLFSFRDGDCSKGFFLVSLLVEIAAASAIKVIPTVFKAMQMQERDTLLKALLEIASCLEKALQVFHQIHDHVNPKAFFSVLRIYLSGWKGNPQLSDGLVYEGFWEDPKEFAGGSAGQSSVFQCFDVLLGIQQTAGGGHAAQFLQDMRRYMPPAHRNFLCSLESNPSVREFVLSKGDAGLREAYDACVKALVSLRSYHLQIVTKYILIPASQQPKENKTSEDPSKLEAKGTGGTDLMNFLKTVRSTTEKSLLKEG

[1] = Siu et al., AACR abstract CT116, 2017; cited from earlier work
melanoma = settings: epacadostat in combination with the PD-1 inhibitors pembrolizumab and nivolumab; Phase I/II; cited from earlier work
B16F10 tumors [2] = experiment: Immunohistochemistry of B16F10 tumors for β-catenin, CD8 and IDO1; type: in vivo, C57BL/6 mice; settings: IDOi orally twice daily 100 mg/kg per dose days 7 and 9, tumors 48 hours after last dose, vs vehicle
4T1 tumors [3] = experiment: Immunohistochemistry of 4T1 tumors for β-catenin, CD8 and IDO1; type: in vivo, Balb/C mice; settings: IDOi orally twice daily 100 mg/kg per dose days 6 and 8, tumors 48 hours after last dose, vs vehicle
[4] = system: metastatic or recurrent squamous cell carcinoma of the head and neck, advanced urothelial cell carcinoma, and advanced renal cell carcinoma; settings: epacadostat combination; cited from earlier work
B16F10 tumors [5] = experiment: B16F10 tumor growth study; type: in vivo, C57BL/6 mice
Method: (§1) 6-8-week-old immunocompetent mice (C57BL/6 or Balb/C) were injected subcutaneously with 1.5×10^6B16F10 or 1.5×10^6 4T1 tumor cells under the right shoulder. Tumor volume was measured every 2-3 days a week to monitor tumor growth. Dosing was initiated when the tumors reached about 150-200 mm^3. […] BCAT1 formulated LNP or Placebo (scrambled CTNNB1 dsRNAi) formulated LNP was given intravenously via lateral tail vein at a total volume of 10 ml/kg. Immunotherapy treatments (anti-PD-1 antibody) were given intraperitoneally at a volume of 10 ml/kg.
(§2) Mouse cell lines B16F10 and 4T1 cells were obtained from ATCC (Manassas, Va.) and grown in RPMI/DMEM medium supplemented with 10% FBS. B16F10 cells is a murine melanoma cell line with no Wnt activation or IDO1 activation. 4T1 is a murine breast cell line with Wnt activation and constitutive activation of IDO1.
In a similar study, B16F10 tumor cells were implanted in C57BL/6 mice and at day 5 post-implant, the mice were randomized into two groups and treated with placebo or BCAT1. This dosing cycle was then repeated on days 11 and 12. Tumor growth was monitored by measuring the tumor sizes over the course of the treatment period. […] FIG. 6C.
Tumor growth was monitored by measuring the tumor sizes over the course of the treatment period. […] FIG. 8C. […]

4T1 tumors [6] = experiment: 4T1 tumor growth study; type: in vivo, Balb/C mice; settings: for anti-tumor efficacy (tumor volume): IDOi orally 100 mg/kg per dose twice daily days 4 and 6, BCAT1 iv 3 mg/kg days 5 and 6, anti-PD-1 antibody ip 5 mg/kg days 7 and 8, single, double or triple agents
Method: as §1, §2
In another study, 4T1 tumor cells were implanted in Balb/C mice and 4 days post-implant, the mice were randomized into two groups and treated with placebo or BCAT1. This dosing cycle was then repeated on days 9 and 10. Tumor growth was monitored by measuring the tumor sizes over the course of the treatment period. […] FIG. 1C.
(§3) Tumors were collected 48 hours after the last dose and were subjected to immunohistochemistry to look at β-catenin, CD8 and IDO1 levels. […] FIG. 3B. FIG. 3B. […] Tumor growth was monitored by measuring the tumor sizes over the course of the treatment period. […] FIG. 3C.

MMTV-Wnt tumors [7] = experiment: Immunohistochemistry of MMTV-Wnt tumors for β-catenin, CD8 and IDO1; type: in vivo, mice; settings: tumors 24 hours after last dose
Method: (§4) In the MMTV-Wnt mouse model, mammary gland specific overexpression of Wnt1 with MMTV-LTR leads to spontaneous breast tumors with activated Wnt/β-catenin signaling. MMTV-Wnt mammary tumors spontaneously grow in mice in 3-6 months from the time of birth with Wnt pathway activation.
To see the effect of β-catenin inhibition on T cell infiltration and IDO1 levels in spontaneous tumors, the MMTV-Wnt1 model was used. The tumors were collected 24 hours after the last dose and subjected to immunohistochemistry to determine β-catenin, CD8, and IDO1 levels.
Tumors were collected 24 hours after the last dose and subjected to immunohistochemistry to determine β-catenin, CD8 and IDO1 levels.

4T1 tumors [8] = experiment: Flow cytometry of surface markers in 4T1 tumors; type: in vivo, Balb/C mice; settings: BCAT1 3 mg/kg days 6, 7, 12, 13, tumors 24 hours after last dose, vs PBS
Method: In another similar study, mice bearing 4T1 tumors were treated with PBS or BCAT1 at 3 mg/kg on days 6 and 7 and days 12 and 13 post-implant, as shown in FIG. 2A. Tumors were collected 24 hours after the last dose and subjected to flow cytometry to measure surface markers on single-cell suspensions prepared from the extracted tumors. […] FIG. 2B. […] FIG. 2B. No effect was observed on the immunosuppressive MDSC cells. FIG. 2B.

MMTV-Wnt tumors [9] = experiment: MMTV-Wnt tumor growth study; type: in vivo, mice
Method: as §4
In another study, MMTV-Wnt tumor-bearing mice were treated with BCAT1 at 3 mg/kg on study days 1, 2, 6, and 7 and tumor growth was monitored.

multiple tumor types = experiment: Delivery of LNP formulated BCAT1 to tumors in models; type: in vivo
Source text: The BCAT1 construct was formulated in EnCore lipid nanoparticles (LNP).

4T1 tumors [10] = experiment: Immunohistochemistry of 4T1 tumors for β-catenin, CD8 and IDO1; type: in vivo, Balb/C mice; settings: BCAT1 3 mg/kg days 6, 7, 12, 13 post-implant, tumors 48 hours after last dose, vs placebo
Method: as §1, §2
Balb/C mice were implanted with 4T1 tumors. At six days post 4T1 tumor cell implantation, with the average tumor size of 150-200 mm^3, mice were sorted into two groups and were treated with either placebo or BCAT1 at 3 mg/kg on days 6 and 7 and days 12 and 13 post-implant, as shown in FIG. 1A. 48 hours after the last dose, tumors were collected and assayed by immunohistochemistry for β-catenin, CD8 and IDO1 protein levels.
as §3

B16F10 tumors [11] = experiment: Flow cytometry of immune cell infiltrate in B16F10 tumors; type: in vivo, C57BL/6 mice; settings: BCAT1 3 mg/kg days 6, 7, 12, 13, tumors 24 hours after last dose
Method: A similar study was run to monitor the levels of immune cell infiltrate after two rounds of BCAT1 treatment. B16F10 tumors were treated with PBS, placebo, or BCAT1 at 3 mg/kg on days 6 and 7 post-implant and again on days 12 and 13 post-implant, as shown in FIG. 7A. Tumors were collected 24 hours after the last dose and were subjected to flow cytometry. […] The MDSC cell population was not altered. FIG. 7B.

B16F10 tumors [12] = experiment: Immunohistochemistry of B16F10 tumors for β-catenin, CD8 and IDO1; type: in vivo, C57BL/6 mice; settings: BCAT1 3 mg/kg days 6, 7, 12, 13 post-implant, tumors 48 hours after last dose, vs placebo
Method: as §1, §2
C57BL/6 mice were implanted with B16F10 tumors. At six days post B16F10 tumor cell implantation, with the average tumor size of 200 mm^3, mice were sorted into two groups and were treated with either placebo or BCAT1 at 3 mg/kg on days 6 and 7 post-implant and again on days 12 and 13 post-implant, as shown in FIG. 6A. 48 hours after the last dose, tumors were collected and assayed by immunohistochemistry for β-catenin, CD8 and IDO1 protein levels. […] FIG. 6B.
Tumors were collected 48 hours after the last dose and were subjected to immunohistochemistry to analyze β-catenin, CD8 and IDO1 levels. […] FIG. 8B.

[13] = IDOi 30 mg/kg per dose twice a day for 3 consecutive days
[14] = BCAT1 5 mg/kg per dose study days 1, 2, 3, 5 mg/kg

Molecule: Cn1cc(C[C@@H](N)C(=O)O)c2ccccc21 [indoximod, 1-methyl-D-tryptophan]
- efficacy in patients with advanced melanoma (advanced melanoma): shown efficacy
- inhibition of IDO2 (IDO2): indirectly inhibit IDO2

Molecule: O=C1CC(c2c[nH]c3ccc(F)cc23)C(=O)N1 (centres unmarked) [PF-06840003]
- enzymes targeted / inhibited (IDO1, TDO) (IDO1): selectively target IDO1

Molecule: C[C@@H](C(=O)Nc1ccc(Cl)cc1)C1CCC(c2ccnc3ccc(F)cc23)CC1 (some centres unmarked) [BMS-986205]
- tolerability in patients with advanced cancers [1]: safely tolerated

Molecule: NS(=O)(=O)NCCNc1nonc1C(=NO)Nc1ccc(F)c(Br)c1 [IDOi, epacadostat]
- clinical results in patients with melanoma (melanoma): positive early results
- CD8 levels / CD8 T-cell infiltration (immunohistochemistry) (B16F10 tumors [2]): increases
- IDO1 levels (immunohistochemistry) (B16F10 tumors [2]): reduced the IDO1 levels almost completely; also recorded: decreases
- β-catenin levels (immunohistochemistry) (B16F10 tumors [2]): decreases
- CD8 levels / CD8 T-cell infiltration (immunohistochemistry) (4T1 tumors [3]): only modestly altered; also recorded: increases
- IDO1 levels (immunohistochemistry) (4T1 tumors [3]): reduced the IDO1 levels almost completely; also recorded: decreases
- β-catenin levels (immunohistochemistry) (4T1 tumors [3]): only modestly altered; also recorded: decreases
- efficacy in other tumors [4]: shown efficacy
- tumor growth inhibition vs vehicle (B16F10 tumors [5]; IDOi twice daily 100 mg/kg per dose days 7 and 9, 100 mg/kg): did not result in any significant tumor growth inhibition; also recorded: does not significantly inhibit tumor growth
- tumor growth as compared to placebo (4T1 tumors [6]; IDOi alone twice daily at 100 mg/kg per day on days 6 and 8 post-implant, 100 mg/kg/day): tumor growth inhibition; also recorded: inhibits tumor growth
- anti-tumor efficacy (tumor volume) (4T1 tumors [6]): modest anti-tumor efficacy
- CD8 levels (immunohistochemistry) (MMTV-Wnt tumors [7]; [13]): increases
- IDO1 levels (immunohistochemistry) (MMTV-Wnt tumors [7]; [13]): reduced the IDO1 levels almost completely; also recorded: reduces
- β-catenin levels (immunohistochemistry) (MMTV-Wnt tumors [7]; [13]): increases

B1: BCAT1: nucleic acid inhibitor molecule targeting the β-catenin gene; sense strand SEQ ID NO:1, antisense strand SEQ ID NO:2; formulated in EnCore lipid nanoparticles (nucleic acid)
sense: AGAAUACAAAUGAUGUAGAAACAGCC
antisense: UAGCUAUCGTGGCUGUUUCUACAUCAUUUGUAUUCUGC
modifications: formulated in lipid nanoparticles, chemistry not given here
- LAG-3 checkpoint, flow cytometry (4T1 tumors [8]): significant increases
- MDSC cells, flow cytometry (4T1 tumors [8]): No effect; also recorded: does not significantly alter
- PD-1 checkpoint, flow cytometry (4T1 tumors [8]): significant increases
- Regulatory T cells (Tregs), flow cytometry (4T1 tumors [8]): significantly increased; also recorded: increases
- Tim-3 checkpoint, flow cytometry (4T1 tumors [8]): significant increases
- cytotoxic T-cells (CD8+), flow cytometry (4T1 tumors [8]): significant increases
- tumor growth inhibition (MMTV-Wnt tumors [9]; BCAT1 alone 3 mg/kg study days 1, 2, 6, 7): about 50%
- tumor growth as compared to placebo (MMTV-Wnt tumors [9]; two cycles of BCAT1 treatment): inhibits tumor growth
- Delivery of BCAT1 to Various Tumor Types (multiple tumor types; HCT116, DLD1, HL60): Negative: HCT116, DLD1, HL60
- Delivery of BCAT1 to Various Tumor Types (multiple tumor types; LNP formulated BCAT1, tumor types of Table I (subcutaneous, orthotopic, disseminated, metastatic xenograft, PDX, GEM)): effectively deliver the nucleic acid payload to multiple tumor types
- CD8 protein levels / CD8 T-cell infiltration (immunohistochemistry) (4T1 tumors [10]): increases
- IDO1 protein levels (immunohistochemistry) (4T1 tumors [10]): did not reduce the IDO1 levels significantly; also recorded: does not significantly reduce
- β-catenin protein levels (immunohistochemistry) (4T1 tumors [10]): decreases
- tumor growth as compared to placebo (B16F10 tumors [5]; BCAT1 single agent 3 mg/kg days 5, 6, 11, 12): did not significantly inhibit tumor growth; also recorded: does not significantly inhibit tumor growth
- CD8 T cells, flow cytometry (B16F10 tumors [11]): elevated; also recorded: increases
- LAG-3 checkpoint, flow cytometry (B16F10 tumors [11]): elevated; also recorded: increases
- MDSC cell population, flow cytometry (B16F10 tumors [11]): not altered; also recorded: does not significantly alter
- PD-1 checkpoint, flow cytometry (B16F10 tumors [11]): elevated; also recorded: increases
- Tim-3 checkpoint, flow cytometry (B16F10 tumors [11]): elevated; also recorded: increases
- level of Tregs, flow cytometry (B16F10 tumors [11]; as compared to PBS): did not significantly change; also recorded: does not significantly alter
- tumor growth inhibition (4T1 tumors [6]; BCAT1 alone 3 mg/kg days 4, 5, 9, 10, vs placebo): about 40%
- anti-tumor efficacy (tumor volume) (4T1 tumors [6]): modest anti-tumor efficacy
- tumor growth as compared to placebo (4T1 tumors [6]; two cycles of BCAT1 treatment): inhibits tumor growth
- CD8 levels / CD8 T-cell infiltration (immunohistochemistry) (MMTV-Wnt tumors [7]; [14]): increases
- IDO1 levels (immunohistochemistry) (MMTV-Wnt tumors [7]; [14]): unchanged; also recorded: does not significantly reduce
- β-catenin levels (immunohistochemistry) (MMTV-Wnt tumors [7]; [14]): decreases
- CD8 protein levels / CD8 T-cell infiltration (immunohistochemistry) (B16F10 tumors [12]): increases
- IDO1 protein levels (immunohistochemistry) (B16F10 tumors [12]): decreased; also recorded: reduces
- β-catenin protein levels (immunohistochemistry) (B16F10 tumors [12]): decreases
